Results: publication PMC4003243 (The Journal of Cell Biology, 2014)
Where no end group is shown, it is not given here.

Target: His-tagged talin head (1–406 aa) (human, UniProt Q9Y490 1-406)
Assay: BLI

His-tagged talin head (1–406 aa), sequence (Q9Y490 1-406): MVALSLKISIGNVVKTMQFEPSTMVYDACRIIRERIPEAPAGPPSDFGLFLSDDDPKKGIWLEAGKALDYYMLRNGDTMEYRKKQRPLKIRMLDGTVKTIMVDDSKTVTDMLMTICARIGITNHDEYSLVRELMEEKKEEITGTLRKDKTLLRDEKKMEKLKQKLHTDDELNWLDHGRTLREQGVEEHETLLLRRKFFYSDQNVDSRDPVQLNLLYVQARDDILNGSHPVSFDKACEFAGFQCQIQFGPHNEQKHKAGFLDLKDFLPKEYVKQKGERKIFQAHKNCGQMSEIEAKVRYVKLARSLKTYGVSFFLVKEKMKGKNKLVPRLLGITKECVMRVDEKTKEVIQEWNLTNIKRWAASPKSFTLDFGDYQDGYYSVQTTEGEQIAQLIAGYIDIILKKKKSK

fold higher affinity over wild-type β3-tail [fold]	binding result	Binder
~20	–	KLLITIHDRKEFAKFEEERARAKWVENPLYKEATSTFTNITYRGT (domain or fragment, mouse, UniProt O54890 741-787, looked up, also: GST fusion) [GST–β3-tail, β3-VE chimera]
–	binds	KLLITIHDRKEFAKFEEERARAKWDTANNPLYKEATSTFTNITYRGT (domain or fragment, mouse, UniProt O54890 741-787, looked up, also: GST fusion) [GST–β3-tail (716–762 aa), wild type]
